The record followed here is article PMC12386367, “Importin α3 Is Tolerant to Nuclear Localization Signal Chirality” (International Journal of Molecular Sciences, 2025).

Assay [1] deals with T1, Human importin α3 isoform (residues 1–521) (human, UniProt O00629 1-521).
T1 construct: human importin α3 (Impα3, KPNA4), residues 1-521, intact protein with the N-terminal IBB domain; The materials list Ni2+-resin, ampicillin and IPTG, so expression in E. coli is surmised; also called Impα3; KPNA4
T1 sequence (looked up): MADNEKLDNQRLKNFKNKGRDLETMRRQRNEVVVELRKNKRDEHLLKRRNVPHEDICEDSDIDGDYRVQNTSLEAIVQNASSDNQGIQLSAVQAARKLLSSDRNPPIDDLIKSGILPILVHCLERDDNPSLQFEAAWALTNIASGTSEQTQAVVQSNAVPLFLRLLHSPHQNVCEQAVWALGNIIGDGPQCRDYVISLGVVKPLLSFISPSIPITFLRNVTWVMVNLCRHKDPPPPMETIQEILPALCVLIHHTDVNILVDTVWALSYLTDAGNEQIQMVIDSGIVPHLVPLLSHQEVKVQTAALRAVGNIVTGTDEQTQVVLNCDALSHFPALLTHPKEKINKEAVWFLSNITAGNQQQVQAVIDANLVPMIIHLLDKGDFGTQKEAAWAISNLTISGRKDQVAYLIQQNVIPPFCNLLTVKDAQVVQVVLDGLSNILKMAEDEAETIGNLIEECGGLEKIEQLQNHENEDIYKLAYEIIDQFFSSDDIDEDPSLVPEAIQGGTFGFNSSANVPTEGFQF
As to the kind of experiment: BLI; His-tagged Impα3 or ∆Impα3 immobilised on His-tag biosensors at 0.25 μM; peptides 1 to 10 μM; BLItz system, manufacturer's 10x kinetics buffer; 25 °C; kon and koff from pseudo-first-order plots; apparent Kd = koff/kon, two-state process assumed. As to conditions: both partners purified. (In general: BLI is a label-free optical method that tracks binding on a fibre tip over time.)

Assay [2] deals with T2, IBB-depleted species of Impα3 (residues 64–521 of the intact protein) (human, UniProt O00629 64-521).
T2 construct: PDB 5XZX was used only as the model of ∆Impα3 for docking; its limits may differ from 64-521; also called ΔImpα3; truncated importin species
T2 sequence (looked up): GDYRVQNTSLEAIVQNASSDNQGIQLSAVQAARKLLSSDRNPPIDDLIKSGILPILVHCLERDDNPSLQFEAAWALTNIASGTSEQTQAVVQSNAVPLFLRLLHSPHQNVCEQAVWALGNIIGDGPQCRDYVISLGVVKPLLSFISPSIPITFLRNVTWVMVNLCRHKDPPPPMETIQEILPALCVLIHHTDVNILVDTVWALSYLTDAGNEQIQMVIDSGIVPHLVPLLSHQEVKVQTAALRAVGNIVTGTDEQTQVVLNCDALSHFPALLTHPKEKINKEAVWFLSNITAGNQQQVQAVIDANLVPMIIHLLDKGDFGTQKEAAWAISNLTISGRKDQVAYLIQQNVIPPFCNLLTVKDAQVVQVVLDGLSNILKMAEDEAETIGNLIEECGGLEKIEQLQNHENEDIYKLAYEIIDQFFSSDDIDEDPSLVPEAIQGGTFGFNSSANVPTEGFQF
The assay is described as above. As to conditions: both partners purified.

Non-standard residues stand in square brackets, D forms with d. d(pT) = C[C@H](OP(=O)(O)O)[C@@H](N)C(=O)O

Usually kon stands for a measure of how fast the partners come together. In general, koff refers to the first-order rate constant of dissociation.

B1: D-enantiomeric, isolated NLS region of NUPR1 (residues 54–74 of the intact protein) (peptide)
peptide: Ac-[dY][dT][dN][dR][dP][dS][dP]GG[dH][dE][dR][dK][dL][dV][dT][dK][dL][dQ][dN][dS][dE]-NH2
notes: NLS region of NUPR1 (nuclear protein 1), residues 54-74 of the intact protein, made of D-amino acids; also called D-NLS-NUPR1; wild-type D-NLS-NUPR1; source: synthetic peptide (Genscript, purity higher than 95%)
B1: the kon was determined as 50000 M⁻¹ s⁻¹ in assay [1] and 110000 M⁻¹ s⁻¹ in assay [2].

B2: D-enantiomeric, isolated NLS region of NUPR1 with phosphorylated Thr68 (peptide)
peptide: Ac-[dY][dT][dN][dR][dP][dS][dP]GG[dH][dE][dR][dK][dL][dV][d(pT)][dK][dL][dQ][dN][dS][dE]-NH2
SMILES: CC(=O)N[C@H](Cc1ccc(O)cc1)C(=O)N[C@@H](C(=O)N[C@H](CC(N)=O)C(=O)N[C@H](CCCNC(=N)N)C(=O)N1CCC[C@@H]1C(=O)N[C@H](CO)C(=O)N1CCC[C@@H]1C(=O)NCC(=O)NCC(=O)N[C@H](Cc1c[nH]cn1)C(=O)N[C@H](CCC(=O)O)C(=O)N[C@H](CCCNC(=N)N)C(=O)N[C@H](CCCCN)C(=O)N[C@H](CC(C)C)C(=O)N[C@@H](C(=O)N[C@@H](C(=O)N[C@H](CCCCN)C(=O)N[C@H](CC(C)C)C(=O)N[C@H](CCC(N)=O)C(=O)N[C@H](CC(N)=O)C(=O)N[C@H](CO)C(=O)N[C@H](CCC(=O)O)C(N)=O)[C@H](C)OP(=O)(O)O)C(C)C)[C@H](C)O
notes: NLS region of NUPR1 (nuclear protein 1), residues 54-74 of the intact protein, made of D-amino acids, Thr68 phosphorylated; Mirror-image (all-D) peptide; also called D-NLS-NUPR1phospho; source: synthetic peptide (Genscript, purity higher than 95%)
As for B2, in assay [1], the Kd came out at 13 µM, the koff was determined as 0.13 s⁻¹ and the association rate constant (kon) was 10000 M⁻¹ s⁻¹. In assay [2], the Kd stood at 8 µM, the koff was 0.05 s⁻¹ and the association rate constant (kon) worked out at 6000 M⁻¹ s⁻¹.
